# Experimental data: patent EP4725966A1 (SHANGHAI RUOTUO BIOSCIENCES CO., LTD., dated 2024)
# Substitutions are numbered along the chain they refer to. Names may count otherwise.
# T1: Human HER4-ECD-His (human, UniProt Q15303 26-651)
# T1 construct: extracellular domain; not shown: His tag
# T1 sequence (looked up): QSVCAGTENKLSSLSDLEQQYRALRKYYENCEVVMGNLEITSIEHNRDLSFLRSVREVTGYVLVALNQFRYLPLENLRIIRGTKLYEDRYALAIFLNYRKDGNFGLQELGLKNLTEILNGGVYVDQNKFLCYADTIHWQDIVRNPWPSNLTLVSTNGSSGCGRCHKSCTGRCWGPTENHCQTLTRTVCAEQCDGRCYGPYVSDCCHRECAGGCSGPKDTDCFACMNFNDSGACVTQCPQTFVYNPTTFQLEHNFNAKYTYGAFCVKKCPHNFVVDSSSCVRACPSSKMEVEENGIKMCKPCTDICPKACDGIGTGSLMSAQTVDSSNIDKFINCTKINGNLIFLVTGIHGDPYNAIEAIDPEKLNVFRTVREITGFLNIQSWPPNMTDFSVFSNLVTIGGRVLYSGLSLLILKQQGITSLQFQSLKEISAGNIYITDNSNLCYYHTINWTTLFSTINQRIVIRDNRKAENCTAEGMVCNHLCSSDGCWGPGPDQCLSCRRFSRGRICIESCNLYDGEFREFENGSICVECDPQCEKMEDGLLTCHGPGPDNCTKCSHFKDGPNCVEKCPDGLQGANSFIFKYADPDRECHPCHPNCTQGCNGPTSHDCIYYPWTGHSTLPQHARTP
# B1: hHE4-G1W (antibody, human IgG1, V domains shown)
# VH: QVQLVESGGGLVKPGGSLRLSCAASGFTFSSYVMSWVRQAPGKGLEWVATISDGDSSTYYADSVKGRFTISRDNAKNSLYLQMNSLRAEDTAVYYCARDKGHGYDEGAFVYWGQGTLVTVSS
# VL: DIQMTQSPSSLSASVGDRVTITCRASENIYSYLAWYQQKPGKAPKLLIYNAKTLAEGVPSRFSGSGSGTDFTLTISSLQPEDFATYYCQNHYGTPYTFGQGTKLEIKR
# notes: Humanized from cHE4-G1W; also called humanized HE4 antibody; not shown: human IgG1 heavy chain constant region; human light chain constant region
# B2: cHE1-G1W (antibody, human IgG1, V domains shown)
# VH: EVKLQESGPGLVKPSQSLSLTCSVTGYSITSGYYWNWIRQFPGNKLEWMGYISYDGSNNYNPSLKNRISITRDTSKNQFFLNLNSVTTEDTATYYCARVDWDGDAMDYWGQGTSVTVSS
# VL: DIVLTQSPASLAVSLGQRATISCRASESVDNYGIRLMHWYQQKSGQPPKLLIHRASNLESGIPARFSGSGSRTDFTLTINPVETDDVATYYCQQSNKDPFTFGSGTKLEIKR
# notes: also called chimeric HE1 antibody; not shown: human IgG1 heavy chain constant region, GenBank AXN93653.1; human kappa light chain constant region, GenBank AWK57456.1
# B3: cHE5-G1W (antibody, human IgG1, V domains shown)
# VH: B2 VH with K3Q, N82K, R98S, V99Y, W101Y, A105W, M106F, D107A, S114L, S119A
# VL: B2 VL with N31H, I34S, R35S, L36F, S44P, H53Y, L58P, F100P, S104G
# notes: also called chimeric HE5 antibody; not shown: human IgG1 heavy chain constant region, GenBank AXN93653.1; human kappa light chain constant region, GenBank AWK57456.1
# B4: cHE2-G1W (antibody, human IgG1, V domains shown)
# VH: B2 VH with N82K, V99M
# VL: B2 VL with R35S, S44P, H53Y, F100P, S104A, I110L
# notes: also called chimeric HE2 antibody; not shown: human IgG1 heavy chain constant region, GenBank AXN93653.1; human kappa light chain constant region, GenBank AWK57456.1
# B5: cHE6-G1W (antibody, human IgG1, V domains shown)
# VH: EVQLQQSGPDLVKPGTSVKMSCKASGYTFTDYYMHWVRQSHGKSLEWIGYINPNNGDAIYNQKFKGKATLTVNKSSTTAYMALRSLTSEDSAVYFCATYDYGGDFYFDVWGTGTTVTVSS
# VL: DIELTQSPALMSASPGEKVTMTCSASSSVSYMYWYQQKPRSSPKPWIYLTSNLASGVPARFSGSGSGTSYSLTISSMEAEDAATYYCQQWSRNPLTFGAGTKLELKR
# notes: also called chimeric HE6 antibody; not shown: human IgG1 heavy chain constant region, GenBank AXN93653.1; human kappa light chain constant region, GenBank AWK57456.1
# B6: cHE7-G1W (antibody, human IgG1, V domains shown)
# VH: B5 VH with N73D
# VL: B5 VL
# notes: also called chimeric HE7 antibody; not shown: human IgG1 heavy chain constant region, GenBank AXN93653.1; human kappa light chain constant region, GenBank AWK57456.1
# B7: cHE4-G1W (antibody, human IgG1, V domains shown)
# VH: EVQLVESGGGLVKPGGSLKLSCAASGFTFSSYVMSWVRQTPEKRLEWVATISDGDSSTYYPDNVKGRFTISRDNAKNNLFLQMSHLKSEDTAMYFCARDKGHGYDEGAFVYWGQGTLVTVSA
# VL: DIQMTQSPASLSASVEETVTITCRASENIYSYLAWYQQKQGKSPQLLVYNAKTLAEGVPSRFSGSGSGTEFSLKINSLQPEDFGSYYCQNHYGTPYTFGGGTKLEIKQ
# notes: also called chimeric HE4 antibody; cHE4-G1W4; not shown: human IgG1 heavy chain constant region, GenBank AXN93653.1; human kappa light chain constant region, GenBank AWK57456.1
# B8: patritumab (antibody, V domains shown)
# VH: QVQLQQWGAGLLKPSETLSLTCAVYGGSFSGYYWSWIRQPPGKGLEWIGEINHSGSTNYNPSLKSRVTISVETSKNQFSLKLSSVTAADTAVYYCARDKWTWYFDLWGRGTLVTVSS
# VL: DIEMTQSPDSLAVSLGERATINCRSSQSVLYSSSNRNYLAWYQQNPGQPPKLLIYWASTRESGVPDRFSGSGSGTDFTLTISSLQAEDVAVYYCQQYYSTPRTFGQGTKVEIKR
# B9: hHE4-G1W-DXd (antibody, V domains shown)
# VH: B1 VH
# VL: B1 VL
# modifications: maleimide-GGFG-DXd conjugated to cysteines of reduced interchain disulfide bonds; antibody-to-DXd ratio 1:8
# notes: not shown: human IgG1 heavy chain constant region; human light chain constant region
# Molecular target: T2, human HER3-ECD-His (human, UniProt P21860 20-643)
# T2 construct: extracellular domain; Fusion protein of the extracellular domain of human HER3 and a His tag; also called hHER3-ECD-His; human HER3 extracellular domain protein; not shown: His tag
# Test: Octet (BLI)
row,KD fold lower than patritumab [fold],Binder
1,~10,B1

# Molecular target: T3, cynomolgus HER3-ECD-His (cynomolgus monkey, UniProt G7PIG5 20-643)
# T3 construct: extracellular domain; Bought protein (Sino Biological); also called Cyno HER3-ECD-His; Cyno HER3; not shown: His tag
# T3 sequence (G7PIG5 entry or part of it): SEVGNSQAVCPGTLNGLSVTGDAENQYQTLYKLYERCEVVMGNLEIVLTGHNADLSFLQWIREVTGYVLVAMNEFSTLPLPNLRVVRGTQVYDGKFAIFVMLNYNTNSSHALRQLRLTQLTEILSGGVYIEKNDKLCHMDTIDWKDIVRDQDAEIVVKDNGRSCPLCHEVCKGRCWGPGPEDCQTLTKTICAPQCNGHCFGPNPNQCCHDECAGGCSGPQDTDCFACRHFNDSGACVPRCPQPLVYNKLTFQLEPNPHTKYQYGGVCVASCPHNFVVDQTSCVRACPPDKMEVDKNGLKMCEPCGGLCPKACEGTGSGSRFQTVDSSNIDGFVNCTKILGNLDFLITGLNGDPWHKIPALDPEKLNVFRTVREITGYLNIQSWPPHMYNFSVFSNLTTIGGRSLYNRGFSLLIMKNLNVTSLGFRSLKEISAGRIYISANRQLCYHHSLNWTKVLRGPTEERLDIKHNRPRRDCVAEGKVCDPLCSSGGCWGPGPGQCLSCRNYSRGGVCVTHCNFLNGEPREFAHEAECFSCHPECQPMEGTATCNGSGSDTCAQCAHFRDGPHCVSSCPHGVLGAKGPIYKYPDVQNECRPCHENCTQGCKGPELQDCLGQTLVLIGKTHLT
# Test: Octet (BLI)
row,KD fold lower than patritumab [fold],Binder
1,~10,B1

# Molecular target: T2, human HER3-ECD-His
# Test: Octet (BLI)
# Remark: another data set of the same source
Kd [nM],koff [s⁻¹],kon [M⁻¹ s⁻¹],Binder
4.88,0.00356,728000,B2
3.56,0.00253,710000,B3
3.57,0.00308,861000,B4
0.00114,5.11e-07,450000,B5
0.00131,5.57e-07,425000,B6
0.409,0.000234,573000,B7
0.869,0.000224,258000,B8

# Molecular target: T3, cynomolgus HER3-ECD-His
# Test: Octet (BLI)
# Remark: another data set of the same source
Kd [nM],koff [s⁻¹],kon [M⁻¹ s⁻¹],Binder
4.01,0.0017,423000,B2
3.58,0.00154,429000,B3
3.25,0.00165,507000,B4
1.25,0.000706,565000,B5
1.36,0.000912,672000,B6
0.31,0.000116,374000,B7
2.34,0.000306,131000,B8

# Molecular target: T2, human HER3-ECD-His
# Test: Octet (BLI)
# Remark: another data set of the same source
Kd [nM],koff [s⁻¹],kon [M⁻¹ s⁻¹],Binder
0.199,9.84e-05,495000,B1
0.233,0.000112,482000,B7
1.33,0.000296,222000,B8

# Molecular target: T3, cynomolgus HER3-ECD-His
# Test: Octet (BLI)
# Remark: another data set of the same source
Kd [nM],koff [s⁻¹],kon [M⁻¹ s⁻¹],Binder
0.208,9.11e-05,439000,B1
0.227,9.63e-05,425000,B7
1.92,0.000371,194000,B8

# Molecular target: T4, cynomolgus HER3 on CHO cells (cynomolgus monkey, UniProt G7PIG5 20-1342)
# T4 construct: whole, on cells; also called CHO cells overexpressing cynomolgus HER3; CHO cells overexpressing cynomolgus monkey HER3
# T4 sequence (G7PIG5 entry or part of it): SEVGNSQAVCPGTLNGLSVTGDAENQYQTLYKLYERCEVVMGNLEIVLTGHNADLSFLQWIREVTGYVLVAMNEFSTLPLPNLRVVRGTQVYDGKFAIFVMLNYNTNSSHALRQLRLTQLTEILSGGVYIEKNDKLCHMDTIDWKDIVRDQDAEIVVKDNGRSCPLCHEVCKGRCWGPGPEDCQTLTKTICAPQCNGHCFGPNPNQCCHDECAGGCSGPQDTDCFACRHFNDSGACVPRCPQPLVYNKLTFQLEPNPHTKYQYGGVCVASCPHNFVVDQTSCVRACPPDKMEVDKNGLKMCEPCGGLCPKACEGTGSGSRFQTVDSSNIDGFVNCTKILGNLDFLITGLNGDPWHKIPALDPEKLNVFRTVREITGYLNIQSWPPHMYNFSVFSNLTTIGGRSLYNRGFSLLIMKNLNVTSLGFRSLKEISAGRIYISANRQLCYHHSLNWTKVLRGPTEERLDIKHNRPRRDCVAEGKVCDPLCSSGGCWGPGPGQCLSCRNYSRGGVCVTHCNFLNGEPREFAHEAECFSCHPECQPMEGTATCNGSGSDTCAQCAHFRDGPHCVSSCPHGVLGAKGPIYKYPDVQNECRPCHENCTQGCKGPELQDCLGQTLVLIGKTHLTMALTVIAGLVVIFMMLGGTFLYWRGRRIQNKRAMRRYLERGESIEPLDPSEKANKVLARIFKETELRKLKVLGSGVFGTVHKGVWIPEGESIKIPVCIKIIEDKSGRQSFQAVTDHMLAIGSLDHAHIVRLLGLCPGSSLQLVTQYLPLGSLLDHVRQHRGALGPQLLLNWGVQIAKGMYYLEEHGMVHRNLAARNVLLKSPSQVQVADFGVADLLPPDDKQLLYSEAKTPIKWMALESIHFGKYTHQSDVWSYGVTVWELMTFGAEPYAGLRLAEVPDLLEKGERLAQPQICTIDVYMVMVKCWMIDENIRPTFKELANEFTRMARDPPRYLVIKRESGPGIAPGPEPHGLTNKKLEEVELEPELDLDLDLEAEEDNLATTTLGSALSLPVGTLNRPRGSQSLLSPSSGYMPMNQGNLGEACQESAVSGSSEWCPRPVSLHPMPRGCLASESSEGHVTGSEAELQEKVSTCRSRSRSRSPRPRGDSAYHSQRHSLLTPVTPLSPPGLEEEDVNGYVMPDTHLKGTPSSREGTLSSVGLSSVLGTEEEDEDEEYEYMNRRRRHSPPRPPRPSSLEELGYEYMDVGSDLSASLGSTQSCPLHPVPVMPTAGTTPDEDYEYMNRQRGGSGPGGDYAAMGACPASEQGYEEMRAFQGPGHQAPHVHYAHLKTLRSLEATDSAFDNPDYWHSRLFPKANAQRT
# Test: FACS on CHO cells overexpressing cynomolgus HER3
row,EC50 fold against patritumab [fold],Binder
1,2,B7

# Molecular target: T5, Human EGFR-ECD-His (human, UniProt P00533 25-645)
# T5 construct: extracellular domain; not shown: His tag
# Test: ELISA on coated Human EGFR-ECD-His, antibody 25 nM to 0.011 nM
row,binding result,Binder
1,no binding (tested: 25 nM),B1

# Molecular target: T6, Human HER2-ECD-His (human, UniProt P04626 23-652)
# T6 construct: extracellular domain; not shown: His tag
# Test: ELISA on coated Human HER2-ECD-His, antibody 25 nM to 0.011 nM
row,binding result,Binder
1,no binding (tested: 25 nM),B1

# Molecular target: T1, Human HER4-ECD-His
# Test: ELISA on coated Human HER4-ECD-His, antibody 25 nM to 0.011 nM
row,binding result,Binder
1,no binding (tested: 25 nM),B1

# Molecular target: T7, human HER3 on cells (human, UniProt P21860 20-1342)
# T7 construct: whole, on cells; also called Human HER3-CHO; CHO cells overexpressing human HER3
# Test: fluorescence imaging of HER3-overexpressing A375 cells, 100 nM, 0 hour
row,binding result,Binder
1,binds,B9
